Measurements as given in patent publication US6569430.

Assays:
[1] = biological target: Campath-1 antigen (partially purified, obtained from a glycolipid extract from human spleen) (human) (UniProt P31358); test: direct binding ELISA, partially purified Campath-1 antigen coated on wells, detected with biotin anti-rat IgG2b; antibody concentration at 50% maximal binding
[2] = biological target: Campath-1 antigen (partially purified, obtained from a glycolipid extract from human spleen) (human) (UniProt P31358); test: cell-based or functional assay

HuVHCAMP(Ser27 to Phe)-RaIgG2B with rat kappa light chain of YTH 34.5HL (antibody)
EC50 [1]: 1.8 µg/mL | Concentration of antibody in ug/ml at 50% lysis (complement lysis of human lymphocytes with human serum) [2]: 16.3 µg/mL

HuVHCAMP-RaIgG2B with rat kappa light chain of YTH 34.5HL (antibody)
EC50 [1]: 27.3 µg/mL

HuVHCAMP(Ser27 to Phe, Ser30 to Thr)-RaIgG2B with rat kappa light chain of YTH 34.5HL (antibody)
EC50 [1]: 2 µg/mL | Concentration of antibody in ug/ml at 50% lysis (complement lysis of human lymphocytes with human serum) [2]: 17.6 µg/mL
